The source of these data is paper doi:10.1101/2021.12.10.472131 (bioRxiv, 2021).

The assay deals with T1, Par-3 PDZ1-APM (residues 309-987) (UniProt O96782 309-987).
T1 sequence (looked up): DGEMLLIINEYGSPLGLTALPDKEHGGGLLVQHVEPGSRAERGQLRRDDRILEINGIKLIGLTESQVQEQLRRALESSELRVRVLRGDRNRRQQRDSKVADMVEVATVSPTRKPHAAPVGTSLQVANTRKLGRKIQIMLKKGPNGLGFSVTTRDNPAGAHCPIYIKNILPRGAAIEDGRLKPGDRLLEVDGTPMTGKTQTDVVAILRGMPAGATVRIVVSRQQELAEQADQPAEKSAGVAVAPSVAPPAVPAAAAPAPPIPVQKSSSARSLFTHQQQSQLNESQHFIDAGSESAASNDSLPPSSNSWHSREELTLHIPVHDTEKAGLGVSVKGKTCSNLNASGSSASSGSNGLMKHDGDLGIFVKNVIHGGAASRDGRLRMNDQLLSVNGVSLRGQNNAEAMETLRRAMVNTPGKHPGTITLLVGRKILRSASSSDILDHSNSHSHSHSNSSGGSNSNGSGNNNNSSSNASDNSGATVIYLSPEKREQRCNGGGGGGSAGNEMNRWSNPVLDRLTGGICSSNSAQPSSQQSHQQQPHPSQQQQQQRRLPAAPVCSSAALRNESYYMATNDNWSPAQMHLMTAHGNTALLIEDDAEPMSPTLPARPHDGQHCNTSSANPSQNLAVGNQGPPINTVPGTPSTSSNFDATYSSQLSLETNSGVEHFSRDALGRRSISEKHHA
Briefly: supernatant depletion assay.

B1: his aPKC kinase domain-PBM (residues 259-606) (domain or fragment, UniProt A1Z9X0 259-606, looked up)
chain: YSLNDFELIRVIGRGSYAKVLMVELRRTRRIYAMKVIKKALVTDDEDIDWVQTEKHVFETASNHPFLVGLHSCFQTPSRLFFVIEFVRGGDLMYHMQRQRRLPEEHARFYAAEISLALNFLHEKGIIYRDLKLDNVLLDHEGHIKLTDYGMCKEGIRPGDTTSTFCGTPNYIAPEILRGEDYGFSVDWWALGVLLYEMLAGRSPFDLAGASENPDQNTEDYLFQVILEKTIRIPRSLSVRAASVLKGFLNKNPADRLGCHRESAFMDIVSHPFFKNMDWELLERKQVTPPFKPRLDSDRDLANFPPEFTGEAVQLTPDDDHVIDNIDQSEFEGFEYVNPLLMSLEDCV
Consider B1, for which the binding result is recorded as “binds”.
